# Test results as given in paper doi:10.1101/2023.06.26.546492.
# Biological target: His-SUMO-tagged full-length SARS-CoV-2 nsp14 (SARS-CoV-2) (UniProt P0DTD1)
# Experiment: MST
substance,measurement,value
short SARS-CoV-2 nsp10 construct (from UniProt P0DTD1 4264-4385) (domain or fragment),Kd,13.9 µM
